This experiment has as its target HLA-A*02:01 (Homo sapiens, UniProt P04439, D140Y/D185E/D98H/E176V/E277Q/G131W/G231S/I119V/I121R/I166T/I218V/L300P/L318F/N151K/N90K/P208A/P217A/Q86G/Q94H/R138H/R169H/T345S). Put plainly: MHC binding assay (UV-ligand exchange, anti-β2m ELISA, peptide exchange yield). To be noted: binding to HLA-A*02:01. In a few lines:
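Peptide-MHC complexes formed by UV-ligand exchange, cleaving a UV-sensitive placeholder peptide in favour of the test peptide. Exchange yield measured by ELISA: monomers diluted 100-fold onto streptavidin-coated plates, 1 h 37 °C, detected with 2 ug/ml HRP anti-β2m and TMB, absorbance at 450 nm.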
Consider “373 (SLLEDKGLAEV; listed as Homo sapiens) [compound 373]”, for which the “Peptide exchange (MHC class I binding score, peptide exchange yield)” value (from here on “Peptide exchange”) is ““++” (>20% = ++)”.
In the case of “172 (VLYSYTIITV; listed as Homo sapiens) [compound 172]”, the “Peptide exchange” value is reported as ““++” (>20% = ++)”.
To “542 (RVWDISTVSSV; listed as Homo sapiens) [compound 542]” belongs ““+++” (>50 = +++)”; to “325 (FIMPATVADATAV; listed as Homo sapiens) [compound 325]”, ““+++” (>50 = +++)”; to “109 (IILSILEQA; listed as Homo sapiens) [compound 109]”, ““++++” (>75% = ++++)”.
On to “266 (KITDTLIHL; listed as Homo sapiens) [compound 266]”, for which the “Peptide exchange” value is on record as ““+++” (>50 = +++)”.
For the substance “295 (VLDRESPNV; listed as Homo sapiens) [compound 295]”, the “Peptide exchange” value is ““+++” (>50 = +++)”.
“510 (KLYSVVSQL; listed as Homo sapiens) [compound 510]”: the “Peptide exchange” value is ““++” (>20% = ++)”.
For “196 (YLYSVEIKL; listed as Homo sapiens) [compound 196]” the value was ““++++” (>75% = ++++)”.
For the substance “45 (SLWQDIPDV; listed as Homo sapiens) [compound 45]”, the “Peptide exchange” value is ““+++” (>50 = +++)”.
Consider “26 (ALLELAEEL; listed as Homo sapiens) [compound 26]”, for which the “Peptide exchange” value was ““+++” (>50 = +++)”.
To “46 (ILTEENIHL; listed as Homo sapiens) [compound 46]” belongs ““+++” (>50 = +++)”; to “117 (ILPDGEDFLAV; listed as Homo sapiens) [compound 117]”, ““+++” (>50 = +++)”.
Turning to “479 (SLFGNSGILENV; listed as Homo sapiens) [compound 479]”, the “Peptide exchange” value was ““+++” (>50 = +++)”.
For “98 (LIIDQADIYL; listed as Homo sapiens) [compound 98]” the value was ““+++” (>50 = +++)”; for “492 (SLFDGFADGLGV; listed as Homo sapiens) [compound 492]”, ““+++” (>50 = +++)”.
For “409 (LLDAMNYHL; listed as Homo sapiens) [compound 409]” the value was ““++” (>20% = ++)”; for “100 (YLLSTNAQL; listed as Homo sapiens) [compound 100]”, ““++++” (>75% = ++++)”.
To “44 (ILDPISSGFLL; listed as Homo sapiens) [compound 44]” belongs ““++” (>20% = ++)”; to “558 (GLLENIPRV; listed as Homo sapiens) [compound 558]”, ““+++” (>50 = +++)”.
As to “517 (LLMPIPEGLTL; listed as Homo sapiens) [compound 517]”, the “Peptide exchange” value was ““+++” (>50 = +++)”.
To “200 (LLFGSVQEV; listed as Homo sapiens) [compound 200]” belongs ““+++” (>50 = +++)”; to “364 (LLQNEQFEL; listed as Homo sapiens) [compound 364]”, ““+++” (>50 = +++)”.
For “588 (SLLPLSHLV; listed as Homo sapiens) [compound 588]”, the “Peptide exchange” value is recorded as ““+++” (>50 = +++)”.
To “547 (TLDITPHTV; listed as Homo sapiens) [compound 547]” belongs ““+++” (>50 = +++)”.
